Laboratory results from publication PMC9482650, “Quantitative fragmentomics allow affinity mapping of interactomes” (Nature Communications, 2022).

Key:
Experiment in all cases: holdup assay
Parameters in all cases: key: below the threshold = too weak to quantify, mostly under pKd 3.1 to 4
Details in all cases: plain residues with an end cap or a label only (N-terminal biotin on a linker: ado-ado)
PCLO, Q9Y6V0 = biological target: T1, PCLO, Q9Y6V0
T1 sequence (Q9Y6V0 4491-4600, limits assumed, looked up): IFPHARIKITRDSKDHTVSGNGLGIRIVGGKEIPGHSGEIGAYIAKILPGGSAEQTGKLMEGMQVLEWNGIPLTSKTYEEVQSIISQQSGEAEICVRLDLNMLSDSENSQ

MAGI2_4, Q86UL8 = biological target: MAGI2_4, Q86UL8
Sequence of MAGI2_4, Q86UL8 (Q86UL8 772-865): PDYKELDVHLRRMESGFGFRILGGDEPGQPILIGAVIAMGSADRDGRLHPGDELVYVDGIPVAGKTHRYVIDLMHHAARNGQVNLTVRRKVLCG

FRMPD4, Q14CM0 = biological target: FRMPD4, Q14CM0
Sequence of FRMPD4, Q14CM0 (Q14CM0 67-160): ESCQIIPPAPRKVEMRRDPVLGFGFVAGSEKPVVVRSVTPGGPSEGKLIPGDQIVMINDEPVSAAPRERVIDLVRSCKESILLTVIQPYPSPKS

NHERF2_2, Q15599 = biological target: NHERF2_2, Q15599
Sequence of NHERF2_2, Q15599 (Q15599 142-238): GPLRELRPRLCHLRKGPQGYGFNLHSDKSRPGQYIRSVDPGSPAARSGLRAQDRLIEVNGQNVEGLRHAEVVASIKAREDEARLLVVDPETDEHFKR

DLG1_1, Q12959 = biological target: DLG1_1, Q12959
PDLIM1, O00151 = biological target: PDLIM1, O00151
Sequence of PDLIM1, O00151 (O00151 1-87): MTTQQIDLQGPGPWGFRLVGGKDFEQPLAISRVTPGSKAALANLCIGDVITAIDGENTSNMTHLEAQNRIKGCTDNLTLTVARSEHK

CASK, O14936 = biological target: CASK, O14936
Sequence of CASK, O14936 (O14936 487-570): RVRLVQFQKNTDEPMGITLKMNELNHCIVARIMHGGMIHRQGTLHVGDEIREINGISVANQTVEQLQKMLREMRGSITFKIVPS

ARHGEF12, Q9NZN5-2 = biological target: ARHGEF12, Q9NZN5-2
Sequence of ARHGEF12, Q9NZN5-2 (Q9NZN5 other isoform, or with tags, fused parts or gaps): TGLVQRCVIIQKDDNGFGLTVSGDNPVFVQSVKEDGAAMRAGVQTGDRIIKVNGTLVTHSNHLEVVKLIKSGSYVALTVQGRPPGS

LIMK2, P53671 = biological target: LIMK2, P53671
Sequence of LIMK2, P53671 (P53671 143-248): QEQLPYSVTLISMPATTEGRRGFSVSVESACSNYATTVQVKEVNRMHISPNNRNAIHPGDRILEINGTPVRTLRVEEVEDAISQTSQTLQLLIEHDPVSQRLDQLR

GRIP2_3, Q9C0E4 = biological target: GRIP2_3, Q9C0E4
Sequence of GRIP2_3, Q9C0E4 (Q9C0E4 238-339): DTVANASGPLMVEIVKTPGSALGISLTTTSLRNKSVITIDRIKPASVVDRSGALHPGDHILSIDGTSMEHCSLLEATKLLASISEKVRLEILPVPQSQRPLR

GORASP2, Q9H8Y8 = biological target: GORASP2, Q9H8Y8
APBA1_2, Q02410 = biological target: T2, APBA1_2, Q02410
T2 sequence (Q02410 742-832, limits assumed, looked up): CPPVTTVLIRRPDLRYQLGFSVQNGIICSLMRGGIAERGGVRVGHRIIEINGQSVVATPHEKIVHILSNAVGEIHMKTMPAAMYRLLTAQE

DLG2_2, Q15700 = biological target: DLG2_2, Q15700
Sequence of DLG2_2, Q15700 (Q15700 189-283): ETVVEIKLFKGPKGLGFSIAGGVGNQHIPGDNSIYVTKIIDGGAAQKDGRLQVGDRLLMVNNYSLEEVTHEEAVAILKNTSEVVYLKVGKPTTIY

ARHGAP21, Q5T5U3 = biological target: T3, ARHGAP21, Q5T5U3
T3 sequence (Q5T5U3 45-169, limits assumed, looked up): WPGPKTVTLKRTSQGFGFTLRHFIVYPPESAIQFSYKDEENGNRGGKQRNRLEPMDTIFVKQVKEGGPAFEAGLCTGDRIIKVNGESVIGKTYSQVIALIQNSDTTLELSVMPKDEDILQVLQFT

APBA2_2, Q99767 = biological target: T4, APBA2_2, Q99767
T4 sequence (Q99767 654-744, limits assumed, looked up): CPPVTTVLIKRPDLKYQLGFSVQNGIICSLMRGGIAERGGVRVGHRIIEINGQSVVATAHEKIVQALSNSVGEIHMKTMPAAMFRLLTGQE

MPP6, Q9NZW5 = biological target: T5, MPP6, Q9NZW5
T5 sequence (Q9NZW5 125-219, limits assumed, looked up): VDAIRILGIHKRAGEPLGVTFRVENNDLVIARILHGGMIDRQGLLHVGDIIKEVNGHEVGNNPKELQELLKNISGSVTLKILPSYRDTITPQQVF

GRID2IP_1, A4D2P6 = biological target: GRID2IP_1, A4D2P6
Sequence of GRID2IP_1, A4D2P6 (A4D2P6 1-87): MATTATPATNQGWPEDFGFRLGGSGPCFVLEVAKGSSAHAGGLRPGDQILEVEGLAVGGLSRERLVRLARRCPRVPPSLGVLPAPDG

FRMPD2_1, Q68DX3 = biological target: FRMPD2_1, Q68DX3
Sequence of FRMPD2_1, Q68DX3 (Q68DX3 770-861): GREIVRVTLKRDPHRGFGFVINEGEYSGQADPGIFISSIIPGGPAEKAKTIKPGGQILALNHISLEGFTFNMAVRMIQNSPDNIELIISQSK

TJP2_1, Q9UDY2 = biological target: TJP2_1, Q9UDY2
Sequence of TJP2_1, Q9UDY2 (Q9UDY2 24-128): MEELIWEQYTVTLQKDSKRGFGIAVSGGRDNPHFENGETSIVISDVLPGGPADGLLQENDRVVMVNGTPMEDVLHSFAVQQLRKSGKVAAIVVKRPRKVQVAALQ

DLG4_1, P78352 = biological target: DLG4_1, P78352
Sequence of DLG4_1, P78352 (P78352 62-152): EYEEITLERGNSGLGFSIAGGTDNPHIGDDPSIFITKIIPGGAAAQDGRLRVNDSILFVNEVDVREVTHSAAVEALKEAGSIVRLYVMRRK

MAGI2_6, Q86UL8 = biological target: MAGI2_6, Q86UL8
Sequence of MAGI2_6, Q86UL8 (Q86UL8 1141-1229): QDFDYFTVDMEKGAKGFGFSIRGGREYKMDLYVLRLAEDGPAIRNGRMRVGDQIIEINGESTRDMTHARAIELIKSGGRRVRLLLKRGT

MPP2, Q14168 = biological target: T6, MPP2, Q14168
T6 sequence (Q14168 180-250, limits assumed, looked up): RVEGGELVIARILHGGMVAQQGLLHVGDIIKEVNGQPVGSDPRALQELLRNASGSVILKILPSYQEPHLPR

MAGI3_2, Q5TCQ9 = biological target: MAGI3_2, Q5TCQ9
Sequence of MAGI3_2, Q5TCQ9 (Q5TCQ9 398-503): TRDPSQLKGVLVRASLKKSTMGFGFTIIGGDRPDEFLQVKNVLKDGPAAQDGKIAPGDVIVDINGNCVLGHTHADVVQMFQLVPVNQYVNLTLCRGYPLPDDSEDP

IL16_4, Q14005 = biological target: IL16_4, Q14005
Sequence of IL16_4, Q14005 (Q14005 1229-1329): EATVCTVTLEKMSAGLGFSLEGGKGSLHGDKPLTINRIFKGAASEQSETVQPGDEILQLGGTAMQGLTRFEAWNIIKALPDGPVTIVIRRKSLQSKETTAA

GRIP1_4, Q9Y3R0 = biological target: T7, GRIP1_4, Q9Y3R0
T7 sequence (Q9Y3R0 467-571, limits assumed, looked up): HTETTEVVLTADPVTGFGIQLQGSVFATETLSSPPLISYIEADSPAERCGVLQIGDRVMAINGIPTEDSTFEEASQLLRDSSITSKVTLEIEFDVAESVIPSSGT

NHERF3_3, Q5T2W1 = biological target: T8, NHERF3_3, Q5T2W1
T8 sequence (Q5T2W1 238-333, limits assumed, looked up): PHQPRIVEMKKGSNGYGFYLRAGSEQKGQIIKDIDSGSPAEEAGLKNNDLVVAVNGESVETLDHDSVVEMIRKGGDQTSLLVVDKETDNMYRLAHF

SNTA1, Q13424 = biological target: T9, SNTA1, Q13424
T9 sequence (Q13424 82-180, limits assumed, looked up): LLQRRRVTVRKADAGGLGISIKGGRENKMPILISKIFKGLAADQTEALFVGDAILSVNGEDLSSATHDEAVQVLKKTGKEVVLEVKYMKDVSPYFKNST

Inadl_2, Q8NI35 = biological target: Inadl_2, Q8NI35
Sequence of Inadl_2, Q8NI35 (Q8NI35 238-335): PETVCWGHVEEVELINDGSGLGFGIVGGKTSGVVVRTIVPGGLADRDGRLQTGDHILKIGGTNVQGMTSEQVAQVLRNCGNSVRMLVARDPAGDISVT

| Binder | pKd (PCLO, Q9Y6V0) | pKd (MAGI2_4, Q86UL8) | pKd (FRMPD4, Q14CM0) | pKd (NHERF2_2, Q15599) | pKd (DLG1_1, Q12959) | pKd (PDLIM1, O00151) | pKd (CASK, O14936) | pKd (ARHGEF12, Q9NZN5-2) | pKd (LIMK2, P53671) | pKd (GRIP2_3, Q9C0E4) | pKd (GORASP2, Q9H8Y8) | pKd (APBA1_2, Q02410) | pKd (DLG2_2, Q15700) | pKd (ARHGAP21, Q5T5U3) | pKd (APBA2_2, Q99767) | pKd (MPP6, Q9NZW5) | pKd (GRID2IP_1, A4D2P6) | pKd (FRMPD2_1, Q68DX3) | pKd (TJP2_1, Q9UDY2) | pKd (DLG4_1, P78352) | other results |
| --- | --- | --- | --- | --- | --- | --- | --- | --- | --- | --- | --- | --- | --- | --- | --- | --- | --- | --- | --- | --- | --- |
| ANGLMQTSKL [SSTR5, P35346] | below the threshold | below the threshold | 3.69 | 4.64 | below the threshold | below the threshold | below the threshold | 4.62 | below the threshold | below the threshold | below the threshold | below the threshold | below the threshold | 3.97 | below the threshold | below the threshold | below the threshold | below the threshold | below the threshold | below the threshold | pKd (MAGI2_6, Q86UL8): below the threshold; pKd (MPP2, Q14168): below the threshold; pKd (MAGI3_2, Q5TCQ9): below the threshold; pKd (IL16_4, Q14005): 3.84; pKd (GRIP1_4, Q9Y3R0): below the threshold; pKd (NHERF3_3, Q5T2W1): 3.81; pKd (SNTA1, Q13424): below the threshold; pKd (Inadl_2, Q8NI35): below the threshold |
| ETSLVKGIDI [DENND5A, Q6IQ26] | below the threshold | 3.66 | below the threshold | 3.48 | 3.67 | below the threshold | below the threshold | 4.17 | below the threshold | below the threshold | 3.79 | 3.47 | below the threshold | 4.25 | below the threshold | below the threshold | below the threshold | below the threshold | below the threshold | below the threshold | pKd (MAGI2_6, Q86UL8): below the threshold; pKd (MPP2, Q14168): below the threshold; pKd (MAGI3_2, Q5TCQ9): 4.39; pKd (IL16_4, Q14005): below the threshold; pKd (GRIP1_4, Q9Y3R0): below the threshold; pKd (NHERF3_3, Q5T2W1): below the threshold; pKd (SNTA1, Q13424): below the threshold; pKd (Inadl_2, Q8NI35): below the threshold |
